Numbering of substitutions follows the chain as printed.
Assays:
human PRLR on cells = target: T1, human PRLR on cells (human, UniProt P16471 25-622); assay: cell-based or functional assay
T1 sequence: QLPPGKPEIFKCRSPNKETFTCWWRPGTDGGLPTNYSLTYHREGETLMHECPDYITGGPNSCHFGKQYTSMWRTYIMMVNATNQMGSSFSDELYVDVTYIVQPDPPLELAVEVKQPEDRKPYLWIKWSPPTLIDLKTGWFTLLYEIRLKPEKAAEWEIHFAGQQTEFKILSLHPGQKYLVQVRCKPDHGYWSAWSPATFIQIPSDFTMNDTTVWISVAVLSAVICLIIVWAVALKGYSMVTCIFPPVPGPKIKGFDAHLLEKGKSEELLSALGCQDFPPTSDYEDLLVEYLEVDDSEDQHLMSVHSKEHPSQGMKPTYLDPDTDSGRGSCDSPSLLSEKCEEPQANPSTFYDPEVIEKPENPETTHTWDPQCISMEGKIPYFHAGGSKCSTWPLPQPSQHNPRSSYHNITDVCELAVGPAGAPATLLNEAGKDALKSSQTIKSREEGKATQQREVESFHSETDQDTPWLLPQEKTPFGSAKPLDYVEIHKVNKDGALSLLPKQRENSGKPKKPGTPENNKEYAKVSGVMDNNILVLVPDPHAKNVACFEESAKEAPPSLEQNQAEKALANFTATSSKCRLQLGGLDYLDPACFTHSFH

[1] = target: T2, human PRLR ECD-Fc fusion protein (human, UniProt P16471 25-233); assay: ELISA on ECD
T2 construct: not shown: Fc region (captured by goat anti-human Fc)
T2 sequence: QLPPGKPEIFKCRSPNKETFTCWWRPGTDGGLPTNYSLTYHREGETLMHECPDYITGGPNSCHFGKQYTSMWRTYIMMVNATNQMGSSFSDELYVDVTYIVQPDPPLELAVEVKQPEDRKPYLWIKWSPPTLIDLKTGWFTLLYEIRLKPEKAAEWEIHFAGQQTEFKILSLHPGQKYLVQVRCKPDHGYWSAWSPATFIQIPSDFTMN
In short: (§1)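 PRLR was captured on blocked plates for 1 h, then incubated 1 h with serial antibody dilutions in PBS pH 7.4/0.05% Tween 20 containing 10% Superblock. HRP secondary and TMB gave signal read at 450 nm, and EC50 came from curve fitting.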

[2] = target: T3, cyno PRLR ECD-his6 protein (cyno); assay: ELISA on ECD
T3 chain: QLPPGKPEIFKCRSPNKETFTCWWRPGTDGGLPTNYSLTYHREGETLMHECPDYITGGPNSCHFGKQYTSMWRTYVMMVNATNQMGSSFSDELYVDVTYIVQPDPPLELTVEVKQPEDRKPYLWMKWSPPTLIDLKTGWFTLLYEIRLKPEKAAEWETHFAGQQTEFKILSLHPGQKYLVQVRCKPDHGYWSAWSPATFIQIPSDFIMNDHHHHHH
In short: as §1

[3] = target: T4, human PRLR (Biacore antigen) (human, UniProt P16471 25-234, limits assumed); assay: SPR simultaneous binding; PRLR held by surface mAb LFA102
T4 construct: The construct injected over captured antibody is not described (a soluble form is likely); also called huPRLR
T4 sequence: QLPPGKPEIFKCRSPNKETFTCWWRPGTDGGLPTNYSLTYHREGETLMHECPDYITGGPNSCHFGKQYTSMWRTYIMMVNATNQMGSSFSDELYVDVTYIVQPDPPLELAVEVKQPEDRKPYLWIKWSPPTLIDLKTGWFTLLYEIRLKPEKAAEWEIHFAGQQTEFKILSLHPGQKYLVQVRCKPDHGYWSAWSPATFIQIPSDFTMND
Description: (§2) Running buffer was HBS-EP+ (10 mM Hepes, pH7.4, 150 mM NaCl, 3 mM EDTA, 0.05% surfactant). Assay was performed at 12° C. using Biacore T200 and CM5 sensor chips with anti-human IgG (Pierce) amine-coupled in all 4 flow cells to ˜2000 RU.
(§3) Separate test mAbs were captured in flowcells 2, 3 & 4 (flowcell 1 was reference, no test mAb). All 4 flowcells were then blocked by injection with isotype control mAb at 50 ug/ml. All 4 flowcells were then injected with antigen or buffer only (buffer only is for double referencing, done for each mAb pair individually). All 4 flowcells were then injected with 2nd test mAb at 10 ug/ml. All 4 flowcells were then regenerated with glycine, pH1.5.

[4] = target: T4, human PRLR (Biacore antigen); assay: SPR simultaneous binding; PRLR held by surface mAb Ab30
Description: as §2, §3

[5] = target: T4, human PRLR (Biacore antigen); assay: SPR simultaneous binding; PRLR held by surface mAb chAb8
Description: as §2, §3

[6] = target: T4, human PRLR (Biacore antigen); assay: SPR simultaneous binding; PRLR held by surface mAb Ab48
Description: as §2, §3

[7] = target: T4, human PRLR (Biacore antigen); assay: SPR simultaneous binding; PRLR held by surface mAb Ab40
Description: as §2, §3

B1: Ab12 (antibody, V domains shown)
VH: DVQLQESGPGLVKPSQSLSLTCTVTGYSITSDYAWNWIRQFPGNKLEWMGYIGYSGRTSFNPSLKSRISITRDTSKNQFFLQLNSVTTEDTATYYCARGGFAMDYWGQGTSVTVSS
VL: QIVLTQSPGIMSASPGEKVTMTCSASSSVTYMYWYQQKPRSSPKPWIYLTSNLASGVPARFSGSGSGTSYSLTISSMEAEDGATYYCQQWSSTPPLTFGGGTKLELN
notes: murine monoclonal, isotype G2a; reported as PRLR agonist; also called murine Ab12
B1 was tested, and the “T47D pPRLR ELISA IC50” value (human PRLR on cells) was 0.538 µg/mL, the EC50 [1] was 0.069 nM and the EC50 [2] was less than 4 nM.

B2: Ab39 (antibody, human IgG1, kappa, V domains shown)
VH: EVQLVQSGAEVKKPGSSVKVSCKASGYTFTSYWIHWVRQAPGQGLEWIGEIDPSDSYTNYNQKFKGRATLTVDKSSSTAYMELSSLRSEDTAVYYCARSFFTNWFAYWGQGTLVTVSS
VL: DVVMTQTPLSLSVTPGQPASISCRSSQSLVHSNGNTYLHWYLQKPGQSPQLLIYKVSNRFSGVPDRFSGSGSGTDFTLKISRVEAEDVGVYFCSQSTHVPFTFGGGTKVEIKR
notes: humanized from Ab7; G1; also called Ab4 HC.1a and Ab4 LC.1a
For B2, the “solution mAb binding, % of PRLR binding” value [3] was 92%, the “solution mAb binding, % of PRLR binding” value [4] was 0% and the “solution mAb binding, % of PRLR binding” value [5] was 1%. The “Baf3-hPRLR proliferation IC50” value (human PRLR on cells) was 0.27 µg/mL, the “solution mAb binding, % of PRLR binding” value [6] was 2% and the “solution mAb binding, % of PRLR binding” value [7] was -2%. For the same binder, the EC50 [1] was 0.18 nM and the EC50 [2] was 0.46 nM.

B3: Ab30 (antibody, human IgG1, kappa, V domains shown)
VH: B2 VH with Y32F, I34M, E50V, S56T, K74E, S99G, F100D, F101Y, T102S, A106T
VL: B2 VL with S28R, F101W
notes: humanized from Ab5; G1; also called Ab2 HC.1a and Ab2 LC.1a
B3 was tested, and the “solution mAb binding, % of PRLR binding” value [3] was 103%, the “solution mAb binding, % of PRLR binding” value [4] was -1% and the “solution mAb binding, % of PRLR binding” value [5] was 6%. The “Baf3-hPRLR proliferation IC50” value (human PRLR on cells) was 0.14 µg/mL, the “solution mAb binding, % of PRLR binding” value [6] was 6% and the “solution mAb binding, % of PRLR binding” value [7] was -2%. For the same binder, the EC50 [1] was 0.221 nM and the EC50 [2] was 0.1 nM.

B4: Ab40 (antibody, human IgG1, kappa)
heavy: not shown
light: DVVMTQTPLSLSVTPGQPASISCRSSQSLVHSNGNTYLHWYLQKPGQSPQLLIYKVSNRFSGVPDRFSGSGSGTDFTLKISRVEAEDVGVYYCSQSTHVPFTFGGGTKVEIKRTVAAPSVFIFPPSDEQLKSGTASVVCLLNNFYPREAKVQWKVDNALQSGNSQESVTEQDSKDSTYSLSSTLTLSKADYEKHKVYACEVTHQGLSSPVTKSFNRGEC
notes: humanized from Ab7; G1; also called Ab4 HC.1a and Ab4 LC.1b
With B4 the “solution mAb binding, % of PRLR binding” value [3] was 35%, the “solution mAb binding, % of PRLR binding” value [4] was -1% and the “solution mAb binding, % of PRLR binding” value [5] was 0%. For the same binder, the “Baf3-hPRLR proliferation IC50” value (human PRLR on cells) was 0.4 µg/mL, the “solution mAb binding, % of PRLR binding” value [6] was 0% and the “solution mAb binding, % of PRLR binding” value [7] was -2%. The EC50 [1] was 4.41 nM and the EC50 [2] was 0.862 nM.

B5: Ab5 (antibody, V domains shown)
VH: QVQLQQPGAELVRPGTSVKLSCKASGYTFTSFWMHWVKQRPGQGLEWIGVIDPSDTYTNYNQKFKGKATLTVDTSSSTAYMQLSSLTSEDSAVYYCARGDYSNWFTYWGQGTLVTVSA
VL: DVVMTQTPLSLPVSLGDQASISCRSSQRLVHSNGNTYLHWYLQKPGQSPKLLIYKVSNRFSGVPDRFSGSGSGTDFTLKISRVEAEDLGVYFCSQSTHVPWTFGGGTKLEIK
notes: murine monoclonal, isotype G2a; also called murine Ab5
With B5 the “Baf3-hPRLR proliferation IC50” value (human PRLR on cells) was 0.24 µg/mL, the “T47D pPRLR ELISA IC50” value (human PRLR on cells) was 0.038 µg/mL and the EC50 [1] was 0.071 nM. The EC50 [2] was 0.095 nM.

B6: Ab7 (antibody, V domains shown)
VH: QVQLQQPGAELVMPGTSVKLSCKASGYTFTSYWIHWVKQRPGQGLEWIGEIDPSDSYTNYNQKFKGKATLTVDRSSSTAYMQLSSLTSEDSAVYYCGRSFFTNWFAYWGQGTLVTVSA
VL: B5 VL with R28S, S81N, W101F, G105S
notes: murine monoclonal, isotype G1; also called murine Ab7
B6 was tested, and the “Baf3-hPRLR proliferation IC50” value (human PRLR on cells) was 0.28 µg/mL, the “T47D pPRLR ELISA IC50” value (human PRLR on cells) was 0.08 µg/mL and the EC50 [1] was 0.098 nM. It also gave an EC50 [2] of 0.202 nM.

B7: Ab11 (antibody, V domains shown)
VH: EVKLVESGGGLVQPGGSLKLSCAASGFTFSDYYMFWVRQTPEKSLEWVAYISNGGGSTYYPDTVKGRFTISRDNAKNTLYLQMSRLKSEDTAMYYCSRQLFYYGSRGAMGYWGQGTSVTVSS
VL: B5 VL with V3L, R28S, L29I, H39E, F92Y, S94F, S96G, T97S, W101F, G105S
notes: murine monoclonal, isotype G1; also called murine Ab11
With B7 the “Baf3-hPRLR proliferation IC50” value (human PRLR on cells) was 1.11 µg/mL, the “T47D pPRLR ELISA IC50” value (human PRLR on cells) was 0.047 µg/mL and the EC50 [1] was 0.093 nM. For the same binder, the EC50 [2] was 0.153 nM.

B8: Ab13 (antibody, V domains shown)
VH: B5 VH with T56S, Y57H, D73N, Q82H
VL: B5 VL with L9F, R28S, G89E, V90L
notes: murine monoclonal, isotype G2a; also called murine Ab13
For B8, the “Baf3-hPRLR proliferation IC50” value (human PRLR on cells) was 0.32 µg/mL, the “T47D pPRLR ELISA IC50” value (human PRLR on cells) was 0.047 µg/mL and the EC50 [1] was 0.07 nM. For the same binder, the EC50 [2] was 0.143 nM.

B9: Ab10 (antibody, V domains shown)
VH: EVQLHQSGPELVKPGASVKISCKASGYTFTDYNMHWMKQSHGKSLEWIGYFYPYNGGTGYNQEFKNKATLTVDISSSTAYMELRRLTSEDSAVYYCARGGWGIYYAMDYWGQGTSVTVSS
VL: DIQMTQSPASLSASVGETVTITCRASENIYSYLTWYQQKQGKSPQLLVYNAKTLAEGVPSRFSGSGSGTQFSLKINSLQPEDFGSYHCQHHSVTPLTFGAGTKLELK
notes: murine monoclonal, isotype G2a; also called murine Ab10
With B9 the “Baf3-hPRLR proliferation IC50” value (human PRLR on cells) was 3.14 µg/mL, the “T47D pPRLR ELISA IC50” value (human PRLR on cells) was 0.362 µg/mL and the EC50 [1] was 0.147 nM.

B10: Ab6 (antibody, V domains shown)
VH: QVQLQQPGAELVMPGSSVKLSCKASGYTFTTYWMHWVKQRPGQGLEWIGEIDPSDSYSNYNQKFKDKATLTVDKSSSTAYMQLSSLTSEDSAVYYCARNGGLGPAWFSYWGQGTLVTVSA
VL: DIVMTQSQKFMSTTVGDRVSITCKASQYVGTAVAWYQQKPGQSPKLLIYSASNRYTGVPDRFTDSGSGTDFTLTISNLQSEDLADYFCQQYSSYPWTFGGGTKLEIK
notes: murine monoclonal, isotype G1; also called murine Ab6
With B10 the “Baf3-hPRLR proliferation IC50” value (human PRLR on cells) was 0.26 µg/mL, the “T47D pPRLR ELISA IC50” value (human PRLR on cells) was 0.039 µg/mL and the EC50 [1] was 0.086 nM.

B11: Ab49 (antibody, human IgG1, kappa, V domains shown)
VH: EVQLVQSGAEVKKPGASVKVSCKASGYTFTDYNIHWVRQAPGQGLEWIGYIYPNNDGTGYNQKFKSRATLTVDNSTSTAYMELRSLRSDDTAVYYCARGDGNYVGDMDYWGQGTTVTVSS
VL: DIQMTQSPSSLSASVGDRVTITCRASENIYSYLAWYQQKPGKAPKLLVYNAKTLAEGVPSRFSGSGSGTDFTLTISSLQPEDFATYYCQHHYATPFTFGQGTKLEIKR
notes: humanized from Ab8; G1; also called Ab3 HC.1a and Ab3 LC.1b
For B11, the “solution mAb binding, % of PRLR binding” value [3] was -2%, the “solution mAb binding, % of PRLR binding” value [4] was -1% and the “solution mAb binding, % of PRLR binding” value [5] was -1%. For the same binder, the “Baf3-hPRLR proliferation IC50” value (human PRLR on cells) was 0.37 µg/mL, the “solution mAb binding, % of PRLR binding” value [6] was 0% and the “solution mAb binding, % of PRLR binding” value [7] was -3%. The EC50 [1] was 0.0954 nM and the EC50 [2] was 0.361 nM.

Source: patent US20170022281A1 (AbbVie / Abbott, published 2017)
